What all share (conditions): both partners purified
Assay [1] addresses T1, FACT complex (SPT16/SSRP1), full length, untreated (human, UniProt Q9Y5B9 1-1047; Q08945 1-709, phosphorylated as purified from insect cells; residues not printed | phosphorylated as purified from insect cells; residues not given).
T1 construct: SPT16, FACT subunit; SSRP1, FACT subunit; His tags are followed by a TEV site; cleavage is not described; also called FAcilitates Chromatin Transcription complex; full-length FACT; source: Tnao38 insect cells (baculovirus), purified (HisTrap, HiTrap Q, SEC)
Put plainly: pull-down; amylose resin, MBP-CENP-C fusion proteins (fragments or full-length ^MBPCENP-C^EGFP) as baits, FACT or FACT constructs as preys; 3 µM each; 20 mM Hepes pH 6.8, 300 mM NaCl, 2.5% glycerol, 1 mM TCEP, 0.01% Tween; 4°C.

Assay [2] deals with T2, ^MBPCENP-C^EGFP (a full-length CENP-C construct) (human, UniProt Q03188 1-943).
T2 construct: CENP-C; also called ^His-MBPCENP-C^EGFP; source: Tnao38 insect cells (baculovirus), purified (TALON, heparin, SEC); not shown: MBP, N-terminal, kept; EGFP, C-terminal, kept
T2 sequence (Q03188 whole entry): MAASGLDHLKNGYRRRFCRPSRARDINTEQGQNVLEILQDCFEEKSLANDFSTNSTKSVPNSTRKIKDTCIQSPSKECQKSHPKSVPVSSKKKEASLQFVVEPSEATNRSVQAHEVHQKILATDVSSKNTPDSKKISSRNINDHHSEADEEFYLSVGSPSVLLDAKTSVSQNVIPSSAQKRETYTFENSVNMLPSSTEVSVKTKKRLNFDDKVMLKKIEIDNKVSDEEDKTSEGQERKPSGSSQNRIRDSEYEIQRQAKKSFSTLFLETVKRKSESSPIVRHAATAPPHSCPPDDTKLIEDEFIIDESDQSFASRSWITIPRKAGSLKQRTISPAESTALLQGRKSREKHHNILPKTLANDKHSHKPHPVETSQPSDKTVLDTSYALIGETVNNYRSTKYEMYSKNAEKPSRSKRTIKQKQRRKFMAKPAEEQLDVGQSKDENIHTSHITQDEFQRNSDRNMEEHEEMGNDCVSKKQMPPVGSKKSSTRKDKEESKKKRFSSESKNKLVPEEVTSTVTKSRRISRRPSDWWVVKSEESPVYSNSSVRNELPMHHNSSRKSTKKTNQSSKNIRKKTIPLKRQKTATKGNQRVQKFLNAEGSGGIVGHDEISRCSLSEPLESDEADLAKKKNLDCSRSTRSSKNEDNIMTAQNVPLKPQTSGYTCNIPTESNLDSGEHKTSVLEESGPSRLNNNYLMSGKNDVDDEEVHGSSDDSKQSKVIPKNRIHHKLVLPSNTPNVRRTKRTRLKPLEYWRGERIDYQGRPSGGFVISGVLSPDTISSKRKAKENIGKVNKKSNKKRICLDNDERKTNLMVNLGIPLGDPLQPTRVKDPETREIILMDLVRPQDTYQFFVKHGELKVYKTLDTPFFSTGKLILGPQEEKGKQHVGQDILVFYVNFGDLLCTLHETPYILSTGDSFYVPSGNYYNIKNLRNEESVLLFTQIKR
The description is as above.

Assay [3] concerns the target T3, ^GSTCENP-OPQUR (CENP-OPQUR with CENP-U fused to an N-terminal GST) (human, UniProt Q9BU64 1-300; Q6IPU0 1-288; Q7L2Z9 1-268; Q71F23 1-418; Q13352 1-177).
T3 construct: CENP-O; CENP-P; CENP-Q; CENP-U; CENP-R; also called GST-tagged CENP-OPQUR; not shown: GST, N-terminal, kept; copies: + + + +
Description: pull-down; glutathione-agarose, CENP-OPQUR with GST on CENP-U as bait, FACT constructs as preys; 3 µM each; 20 mM Hepes pH 6.8, 300 mM NaCl, 2.5% glycerol, 1 mM TCEP, 0.01% Tween; 4°C.

The target of assay [4] is T4, CCAN, 16-subunit constitutive centromere-associated network reconstituted with CENP-C^2–545 (human, UniProt Q03188 2-545; Q9H3R5 1-247; Q92674 1-756; Q9BS16 1-269; Q9NSP4 1-180; Q8N0S6 …).
T4 construct: CENP-H; CENP-I; CENP-K; CENP-M; CENP-L; CENP-N; CENP-O; CENP-P; CENP-Q; CENP-U; CENP-R; CENP-T; CENP-W; CENP-S; CENP-X; source: recombinant subcomplexes expressed and purified as previously reported, mixed to reconstitute CCAN; copies: + + + + + + + + + + + + + + +
Description: pull-down; amylose resin, MBP-tagged FACT (untreated, dephosphorylated, kinase-treated or truncated) as bait, CCAN or CCAN subcomplexes as preys; 3 µM each; 20 mM Hepes pH 6.8, 300 mM NaCl, 2.5% glycerol, 1 mM TCEP, 0.01% Tween; 4°C; SDS-PAGE, Coomassie.

T1 sequence (Q9Y5B9 whole entry, one chain of several): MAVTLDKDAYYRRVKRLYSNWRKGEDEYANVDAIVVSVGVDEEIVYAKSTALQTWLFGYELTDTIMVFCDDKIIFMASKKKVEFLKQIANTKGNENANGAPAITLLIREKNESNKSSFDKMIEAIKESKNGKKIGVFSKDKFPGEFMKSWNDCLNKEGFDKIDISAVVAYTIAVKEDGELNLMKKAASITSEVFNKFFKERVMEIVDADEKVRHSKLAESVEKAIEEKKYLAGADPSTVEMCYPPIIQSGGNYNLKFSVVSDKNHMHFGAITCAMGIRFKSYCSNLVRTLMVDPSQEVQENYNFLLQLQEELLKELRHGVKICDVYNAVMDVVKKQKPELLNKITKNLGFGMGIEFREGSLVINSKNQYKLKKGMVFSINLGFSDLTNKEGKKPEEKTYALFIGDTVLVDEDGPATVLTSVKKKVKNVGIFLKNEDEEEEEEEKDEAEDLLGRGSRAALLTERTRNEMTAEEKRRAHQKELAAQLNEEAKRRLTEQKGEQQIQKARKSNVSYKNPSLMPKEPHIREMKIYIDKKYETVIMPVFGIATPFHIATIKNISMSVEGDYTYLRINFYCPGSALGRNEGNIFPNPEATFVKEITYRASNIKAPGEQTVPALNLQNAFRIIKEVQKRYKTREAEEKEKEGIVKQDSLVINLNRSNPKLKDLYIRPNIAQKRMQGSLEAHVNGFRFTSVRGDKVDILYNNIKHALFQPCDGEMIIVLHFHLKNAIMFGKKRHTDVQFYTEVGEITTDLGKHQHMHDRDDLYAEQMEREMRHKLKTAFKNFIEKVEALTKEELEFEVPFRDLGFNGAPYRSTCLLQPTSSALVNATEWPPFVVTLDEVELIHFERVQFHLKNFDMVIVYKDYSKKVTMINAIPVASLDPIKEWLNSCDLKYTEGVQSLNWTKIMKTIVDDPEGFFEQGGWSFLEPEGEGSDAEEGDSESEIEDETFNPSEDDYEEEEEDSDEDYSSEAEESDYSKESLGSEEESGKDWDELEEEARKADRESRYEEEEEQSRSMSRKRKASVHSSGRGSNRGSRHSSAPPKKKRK

B1: ^MBPCENP-C^721–759-His (domain or fragment, human, UniProt Q03188 721-759, looked up)
chain: KNRIHHKLVLPSNTPNVRRTKRTRLKPLEYWRGERIDYQ
notes: CENP-C, residues 721-759; not shown: MBP, N-terminal, kept
For the molecule B1, the binding result in assay [1] is reported as “binds”.

B2: SPT16^Mid-AID (SPT16^644–988) (domain or fragment, human, UniProt Q9Y5B9 644-988, looked up)
chain: GIVKQDSLVINLNRSNPKLKDLYIRPNIAQKRMQGSLEAHVNGFRFTSVRGDKVDILYNNIKHALFQPCDGEMIIVLHFHLKNAIMFGKKRHTDVQFYTEVGEITTDLGKHQHMHDRDDLYAEQMEREMRHKLKTAFKNFIEKVEALTKEELEFEVPFRDLGFNGAPYRSTCLLQPTSSALVNATEWPPFVVTLDEVELIHFERVQFHLKNFDMVIVYKDYSKKVTMINAIPVASLDPIKEWLNSCDLKYTEGVQSLNWTKIMKTIVDDPEGFFEQGGWSFLEPEGEGSDAEEGDSESEIEDETFNPSEDDYEEEEEDSDEDYSSEAEESDYSKESLGSEEESGK
notes: SPT16, Mid domain and AID segment, residues 644-988; also called construct 3; source: Tnao38 insect cells (baculovirus), purified (HisTrap, HiTrap Q, SEC)
Consider B2, for which, in assay [2], the binding result is “binds”.

B3: FACT^trunc (SPT16^508–988/SSRP1^1–514) (complex, human)
chain 1: SNVSYKNPSLMPKEPHIREMKIYIDKKYETVIMPVFGIATPFHIATIKNISMSVEGDYTYLRINFYCPGSALGRNEGNIFPNPEATFVKEITYRASNIKAPGEQTVPALNLQNAFRIIKEVQKRYKTREAEEKEKEGIVKQDSLVINLNRSNPKLKDLYIRPNIAQKRMQGSLEAHVNGFRFTSVRGDKVDILYNNIKHALFQPCDGEMIIVLHFHLKNAIMFGKKRHTDVQFYTEVGEITTDLGKHQHMHDRDDLYAEQMEREMRHKLKTAFKNFIEKVEALTKEELEFEVPFRDLGFNGAPYRSTCLLQPTSSALVNATEWPPFVVTLDEVELIHFERVQFHLKNFDMVIVYKDYSKKVTMINAIPVASLDPIKEWLNSCDLKYTEGVQSLNWTKIMKTIVDDPEGFFEQGGWSFLEPEGEGSDAEEGDSESEIEDETFNPSEDDYEEEEEDSDEDYSSEAEESDYSKESLGSEEESGK
chain 2: MAETLEFNDVYQEVKGSMNDGRLRLSRQGIIFKNSKTGKVDNIQAGELTEGIWRRVALGHGLKLLTKNGHVYKYDGFRESEFEKLSDFFKTHYRLELMEKDLCVKGWNWGTVKFGGQLLSFDIGDQPVFEIPLSNVSQCTTGKNEVTLEFHQNDDAEVSLMEVRFYVPPTQEDGVDPVEAFAQNVLSKADVIQATGDAICIFRELQCLTPRGRYDIRIYPTFLHLHGKTFDYKIPYTTVLRLFLLPHKDQRQMFFVISLDPPIKQGQTRYHFLILLFSKDEDISLTLNMNEEEVEKRFEGRLTKNMSGSLYEMVSRVMKALVNRKITVPGNFQGHSGAQCITCSYKASSGLLYPLERGFIYVHKPPVHIRFDEISFVNFARGTTTTRSFDFEIETKQGTQYTFSSIEREEYGKLFDFVNAKKLNIKNRGLKEGMNPSYDEYADSDEDQHDAYLERMKEEGKIREENANDSSDDSGEETDESFNPGEEEEDVAEEFDSNASASSSSNEGDSDRDE
notes: SPT16, residues 508-988; SSRP1, residues 1-514; also called construct 2; source: Tnao38 insect cells (baculovirus), purified (HisTrap, HiTrap Q, SEC)
With B3, in assay [3], the binding result is listed as “binds”.

B4: ^MBPFACT^trunc (MBP-TEV-SPT16^508–988 + His-TEV-SSRP1^1–514) (complex, human)
chain 1: SNVSYKNPSLMPKEPHIREMKIYIDKKYETVIMPVFGIATPFHIATIKNISMSVEGDYTYLRINFYCPGSALGRNEGNIFPNPEATFVKEITYRASNIKAPGEQTVPALNLQNAFRIIKEVQKRYKTREAEEKEKEGIVKQDSLVINLNRSNPKLKDLYIRPNIAQKRMQGSLEAHVNGFRFTSVRGDKVDILYNNIKHALFQPCDGEMIIVLHFHLKNAIMFGKKRHTDVQFYTEVGEITTDLGKHQHMHDRDDLYAEQMEREMRHKLKTAFKNFIEKVEALTKEELEFEVPFRDLGFNGAPYRSTCLLQPTSSALVNATEWPPFVVTLDEVELIHFERVQFHLKNFDMVIVYKDYSKKVTMINAIPVASLDPIKEWLNSCDLKYTEGVQSLNWTKIMKTIVDDPEGFFEQGGWSFLEPEGEGSDAEEGDSESEIEDETFNPSEDDYEEEEEDSDEDYSSEAEESDYSKESLGSEEESGK
chain 2: MAETLEFNDVYQEVKGSMNDGRLRLSRQGIIFKNSKTGKVDNIQAGELTEGIWRRVALGHGLKLLTKNGHVYKYDGFRESEFEKLSDFFKTHYRLELMEKDLCVKGWNWGTVKFGGQLLSFDIGDQPVFEIPLSNVSQCTTGKNEVTLEFHQNDDAEVSLMEVRFYVPPTQEDGVDPVEAFAQNVLSKADVIQATGDAICIFRELQCLTPRGRYDIRIYPTFLHLHGKTFDYKIPYTTVLRLFLLPHKDQRQMFFVISLDPPIKQGQTRYHFLILLFSKDEDISLTLNMNEEEVEKRFEGRLTKNMSGSLYEMVSRVMKALVNRKITVPGNFQGHSGAQCITCSYKASSGLLYPLERGFIYVHKPPVHIRFDEISFVNFARGTTTTRSFDFEIETKQGTQYTFSSIEREEYGKLFDFVNAKKLNIKNRGLKEGMNPSYDEYADSDEDQHDAYLERMKEEGKIREENANDSSDDSGEETDESFNPGEEEEDVAEEFDSNASASSSSNEGDSDRDE
notes: SPT16, residues 508-988; SSRP1, residues 1-514; also called construct 2 with an N-terminal MBP fusion on SPT16; source: Tnao38 insect cells (baculovirus), purified (HisTrap, HiTrap Q, SEC); not shown: MBP, N-terminal, kept
Consider B4, for which the binding result in assay [4] is “binds”.

B5: ^MBPCENP-C^546–600-His (domain or fragment, human, UniProt Q03188 546-600, looked up)
chain: VRNELPMHHNSSRKSTKKTNQSSKNIRKKTIPLKRQKTATKGNQRVQKFLNAEGS
notes: CENP-C, residues 546-600; not shown: MBP, N-terminal, kept
B5: the binding result in assay [1] is reported as “binds”.

Values taken from PMC11912937 (The Journal of Cell Biology, 2025).
